The source of these data is the Human Domainome abundance scans (Beltran et al. 2025).

B1: Chromodomain-helicase-DNA-binding protein 5, residues 338 to 390; numbered along this chain, Q8TDI0 (parent)
chain: YETDHQDYCEVCQQGGEIILCDTCPRAYHLVCLDPELEKAPEGKWSCPHCEKE

± gives the uncertainty stated by the source.

In this data set the parent is B1. Briefly: abundance fitness (aPCA) (normalised: wild type 0, dead -1); higher = more abundant; growth selection in yeast, the domain comes from the species named. The settings on record: Homo sapiens.
With P35C, the abundance fitness is -0.313 ± 0.21.
On to P35Y, for which the abundance fitness came to 0.027 ± 0.24.
For the variant C12I, the abundance fitness is -0.912 ± 0.16.
The same measure for C12G: -0.752 ± 0.11; for C12P: -0.901 ± 0.13; for C12T: -0.776 ± 0.12.
Then P48C, with 0.016 ± 0.16; and P48V, with -0.04 ± 0.1; and P48E, with -0.017 ± 0.12.
For C50E, the abundance fitness was 0.025 ± 0.14.
Then C50R, with -0.71 ± 0.12.
Then C50A, with -0.503 ± 0.13.
For E42D, the abundance fitness was -0.013 ± 0.18.
Then H49S, with -0.312 ± 0.24.
The same measure for H49Q: 0.032 ± 0.23; for H49T: 0.139 ± 0.26.
As to E2S, the abundance fitness turned out to be 0.451 ± 0.15.
Take E2W: the abundance fitness is -0.092 ± 0.22.
Then E2G, with 0.072 ± 0.1; and E2M, with 0.789 ± 0.31; and P25V, with -0.124 ± 0.12.
The same measure for P25G: -0.001 ± 0.11; for P41K: -0.118 ± 0.17; for P41V: -0.096 ± 0.12.
For the variant E38H, the abundance fitness is -0.207 ± 0.2.
For T3H, the abundance fitness was -0.407 ± 0.29.
The same measure for T3W: 0.236 ± 0.12.
Turning to T3D, the abundance fitness is 0.023 ± 0.23.
On to V31W, for which the abundance fitness is -0.566 ± 0.16.
The same measure for V31P: 0.106 ± 0.16; for V31A: -0.046 ± 0.11.
The same measure for V31H: 0.018 ± 0.21; for V31S: -0.145 ± 0.12; for V31F: 0.047 ± 0.15.
Take Q13C: the abundance fitness is -0.076 ± 0.14.
As to Q13F, the abundance fitness was -0.258 ± 0.15.
Q13N: the abundance fitness turned out to be 0.029 ± 0.18.
The same measure for Q13A: -0.034 ± 0.1.
Regarding Q13G, the abundance fitness worked out at 0.18 ± 0.084.
Then D22M, with -0.185 ± 0.14; and D22W, with -0.373 ± 0.17; and D22N, with -0.015 ± 0.14.
Regarding E53L, the abundance fitness stood at 0.022 ± 0.29.
For R26T, the abundance fitness was -0.436 ± 0.26.
Then R26F, with -0.211 ± 0.17.
Regarding R26P, the abundance fitness is -0.87 ± 0.23.
The same measure for R26S: 0.002 ± 0.1.
Then R26G, with -0.029 ± 0.089; and L33V, with -0.034 ± 0.097.
Turning to L33C, the abundance fitness is -0.272 ± 0.16.
For the variant I19Q, the abundance fitness was 0.029 ± 0.15.
For the variant I19T, the abundance fitness is 0.303 ± 0.12.
As for I19M, the abundance fitness is 0.256 ± 0.13.
The same measure for I19E: -0.056 ± 0.13.
Regarding I19R, the abundance fitness was determined as 0.115 ± 0.088.
Then I19K, with 0.315 ± 0.16.
Turning to I19L, the abundance fitness stood at 0.121 ± 0.11.
Then D4T, with -0.008 ± 0.12; and D4R, with 0.054 ± 0.09; and D4M, with 0.627 ± 0.13.
The same measure for D4N: 0.106 ± 0.13.
The same measure for D4Q: 0.368 ± 0.18.
D4Y: the abundance fitness is -0.337 ± 0.37.
Then A40T, with -0.088 ± 0.13.
The same measure for A40Y: -0.23 ± 0.18; for E17H: -0.435 ± 0.32; for L20F: 0.078 ± 0.14.
For L20R, the abundance fitness stood at 0.266 ± 0.092.
The same measure for L20Y: 0.169 ± 0.15.
Then L20S, with 0.233 ± 0.1.
The same measure for L20P: 0.234 ± 0.14; for I18A: 0.177 ± 0.12; for I18T: 0.021 ± 0.15.
In the case of I18R, the abundance fitness is 0.021 ± 0.1.
Turning to C32V, the abundance fitness was -0.618 ± 0.14.
Then C32M, with -0.926 ± 0.2.
For C32L, the abundance fitness was -0.993 ± 0.14.
With K52H, the abundance fitness came to 0.223 ± 0.3.
The same measure for K52D: -0.038 ± 0.15; for K52R: -0.109 ± 0.13.
As to K52W, the abundance fitness was -0.082 ± 0.17.
Then K52T, with 0.473 ± 0.14.
In the case of K52E, the abundance fitness was -0.288 ± 0.17.
The same measure for K39V: -0.189 ± 0.11; for K39C: -0.358 ± 0.21; for Q14G: 0.118 ± 0.12.
In the case of Q14N, the abundance fitness was -0.065 ± 0.17.
Then Q14P, with -1.04 ± 0.23.
Then E36S, with -0.163 ± 0.13; and C21Y, with -0.739 ± 0.17; and C21A, with -0.563 ± 0.14.
The same measure for C21S: -0.811 ± 0.13; for C21V: -0.519 ± 0.13; for C9P: -0.558 ± 0.15.
Regarding D7Q, the abundance fitness was 0.176 ± 0.17.
In the case of D7N, the abundance fitness is -0.129 ± 0.097.
Then D7I, with -0.317 ± 0.28; and D7M, with 0.167 ± 0.21.
On to D7K, for which the abundance fitness is -0.313 ± 0.15.
Then G16N, with 0.259 ± 0.19; and G16I, with -0.195 ± 0.28.
The same measure for G16E: 0.027 ± 0.11; for C24D: -1.16 ± 0.35.
In the case of C24S, the abundance fitness is -0.753 ± 0.13.
The same measure for C24W: -0.736 ± 0.14.
Then A27N, with 0.048 ± 0.21.
Take A27R: the abundance fitness was -0.086 ± 0.1.
As for A27I, the abundance fitness is -0.021 ± 0.21.
As to A27Q, the abundance fitness was found to be 0.171 ± 0.19.
Turning to A27S, the abundance fitness is -0.133 ± 0.12.
As to Y28C, the abundance fitness is 0.001 ± 0.16.
The same measure for Y28E: -0.668 ± 0.19; for Y28F: -0.315 ± 0.19.
On to V11Y, for which the abundance fitness stood at 0.033 ± 0.14.
The same measure for V11N: -0.013 ± 0.14; for V11W: -0.038 ± 0.13.
Then V11P, with 0.061 ± 0.11; and V11T, with 0.341 ± 0.11.
The same measure for S46N: -0.056 ± 0.3; for S46K: -0.258 ± 0.18.
Consider C47W, for which the abundance fitness was -0.58 ± 0.13.
The same measure for C47H: -0.248 ± 0.18; for C47R: -0.922 ± 0.11; for C47E: -0.9 ± 0.18.
For the variant C47Y, the abundance fitness was -1.2 ± 0.28.
Then H5S, with 0.293 ± 0.1.
In the case of H5Q, the abundance fitness was -0.046 ± 0.16.
Then H5C, with 0.394 ± 0.21; and Y1F, with -0.041 ± 0.22.
Take L30K: the abundance fitness was determined as 0.04 ± 0.18.
Regarding H29F, the abundance fitness is -1.07 ± 0.39.
On to H29L, for which the abundance fitness is -1.14 ± 0.15.
Then D34P, with -0.15 ± 0.21.
Then D34N, with -0.354 ± 0.2.
As for D34V, the abundance fitness was -0.14 ± 0.1.
With D34K, the abundance fitness was -0.347 ± 0.24.
Consider D34F, for which the abundance fitness was -0.058 ± 0.16.
Turning to E51L, the abundance fitness is -0.105 ± 0.1.
The same measure for E51T: 0.088 ± 0.14; for E51N: 0.086 ± 0.19; for E51M: -0.401 ± 0.17.
The same measure for Y8K: -0.067 ± 0.13; for Y8A: 0.142 ± 0.089; for Y8C: -0.337 ± 0.23.
Regarding Y8M, the abundance fitness is 0.102 ± 0.13.
Turning to Y8G, the abundance fitness turned out to be 0.078 ± 0.11.
L37G: the abundance fitness was found to be 0.032 ± 0.11.
For the variant L37V, the abundance fitness was -0.026 ± 0.11.
L37W: the abundance fitness is -0.496 ± 0.13.
With L37M, the abundance fitness is -0.152 ± 0.16.
The same measure for L37P: -0.085 ± 0.15.
The same measure for G43A: -0.192 ± 0.13; for G43F: -0.138 ± 0.14; for E10M: -0.07 ± 0.18.
The same measure for E10K: 0.2 ± 0.12.
With E10I, the abundance fitness turned out to be 0.188 ± 0.18.
As for E10L, the abundance fitness came out at 0.175 ± 0.098.
Then T23C, with -0.177 ± 0.23; and T23P, with -0.922 ± 0.22; and G15V, with -0.143 ± 0.12.
As to G15N, the abundance fitness turned out to be 0.116 ± 0.19.
Consider Q6L, for which the abundance fitness was -0.286 ± 0.11.
The same measure for Q6V: -0.199 ± 0.12; for Q6C: -0.153 ± 0.13; for K44P: -0.255 ± 0.14.
Then K44R, with 0.14 ± 0.099; and K44H, with -0.341 ± 0.22.
